Experimental data from US10829799 (UNIVERSITY COURT OF THE UNIVERSITY OF DUNDEE, dated 2020).

Target: T1, NAE (NEDD8 E1; Dac-NAE1-UBA3) (UniProt Q13564 1-534; Q8TBC4 1-463)
T1 construct: Co-expressed in Sf21 cells from pFastBacDual; not shown: Dac tag
T1 sequence (looked up) 1: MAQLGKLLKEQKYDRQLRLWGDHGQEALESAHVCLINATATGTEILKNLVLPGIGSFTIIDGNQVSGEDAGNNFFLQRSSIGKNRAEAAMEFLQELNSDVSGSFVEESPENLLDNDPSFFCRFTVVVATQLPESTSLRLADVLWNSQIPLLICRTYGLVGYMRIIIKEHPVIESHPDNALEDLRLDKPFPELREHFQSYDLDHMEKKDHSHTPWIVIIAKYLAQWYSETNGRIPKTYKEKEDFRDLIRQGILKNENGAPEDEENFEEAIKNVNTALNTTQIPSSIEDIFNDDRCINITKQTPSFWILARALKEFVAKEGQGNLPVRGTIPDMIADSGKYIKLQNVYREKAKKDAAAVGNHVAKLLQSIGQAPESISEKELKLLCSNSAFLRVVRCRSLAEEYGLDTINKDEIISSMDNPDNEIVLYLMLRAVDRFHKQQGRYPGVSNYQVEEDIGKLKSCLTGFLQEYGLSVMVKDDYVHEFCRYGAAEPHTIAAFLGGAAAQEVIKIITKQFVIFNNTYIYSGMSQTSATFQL
T1 sequence (looked up) 2: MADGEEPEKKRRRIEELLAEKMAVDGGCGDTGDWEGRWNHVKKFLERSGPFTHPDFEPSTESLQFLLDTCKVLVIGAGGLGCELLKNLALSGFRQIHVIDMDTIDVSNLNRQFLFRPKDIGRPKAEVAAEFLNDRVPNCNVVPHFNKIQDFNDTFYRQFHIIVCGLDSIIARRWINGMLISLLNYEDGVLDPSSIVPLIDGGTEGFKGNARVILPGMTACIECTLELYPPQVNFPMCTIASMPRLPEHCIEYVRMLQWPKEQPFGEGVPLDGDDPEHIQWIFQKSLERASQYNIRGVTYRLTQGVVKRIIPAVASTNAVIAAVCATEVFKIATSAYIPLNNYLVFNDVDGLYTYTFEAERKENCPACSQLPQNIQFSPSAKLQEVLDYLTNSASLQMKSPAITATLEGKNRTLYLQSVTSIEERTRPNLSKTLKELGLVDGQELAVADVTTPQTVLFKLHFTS
Assay: covalent activity-based labelling, SDS-PAGE (FIG. 3C)
Description: E2 probes (14 μM) were mixed with E1 enzyme (3.5 μM) and diluted 10× reaction buffer (500 mM Na_2HPO_4 pH 8) or 10×Ub-ATP buffer (500 mM Na_2HPO_4 pH 8, 20 μM ubiquitin, 20 mM ATP) to a final volume of 15-50 μL. Reactions were incubated at 30° C. and 15 μL aliquots were taken at 1 and 5 h time points which were quenched with 5 μL of reducing SDS-gel loading buffer (NuPAGE LDS loading buffer (4×), 715 mM 2-mercaptoethanol). The quenched reaction solutions were boiled for 5 minute at 100° C. and then 4 μL was analysed by SDS-PAGE (NuPAGE Bis-Tris, 4-12%).

binding result: binds
B1: UBE2M-=CN (enzyme)
chain: MGSSHHHHHHSSGLEVLFQGPGSPEFPGVDSKAAAMIKLFSLKQQKKEEESAGGTKGSSKKASAAQLRIQKDINELNLPKTCDISFSDPDDLLNFKLVICPDEGFYKSGKFVFSFKVGQGYPHDPPKVKCETMVYHPNIDLEGNVCLNILREDWKPVLTINSIIYGLQYLFLEPNPEDPLNKEAAEVLQNNRRLFEQNVQRSMRGGYIGSTYFERCLK
modifications: labelled with TDMA 1 (thioacrylonitrile); 4 of 5 cysteines modified
notes: Legend notes a double band due to degradation of UBE2M
